Experimental data from US20080125354A1 (FLORIDA ATLANTIC UNIVERSITY, published 2008).
Each block holds one binder with its values, some of them ahead of it.

Experiments:
MMP-13 (collagenase 3) = MMP-13 (collagenase 3) (UniProt P45452 20-471, limits assumed); test: cell-based or functional assay
[1] = molecular target: MMP-8 (neutrophil collagenase, collagenase 2) (UniProt P22894 21-467, limits assumed); test: cell-based or functional assay
Sequence of MMP-8 (neutrophil collagenase, collagenase 2) (P22894 21-467 limits assumed): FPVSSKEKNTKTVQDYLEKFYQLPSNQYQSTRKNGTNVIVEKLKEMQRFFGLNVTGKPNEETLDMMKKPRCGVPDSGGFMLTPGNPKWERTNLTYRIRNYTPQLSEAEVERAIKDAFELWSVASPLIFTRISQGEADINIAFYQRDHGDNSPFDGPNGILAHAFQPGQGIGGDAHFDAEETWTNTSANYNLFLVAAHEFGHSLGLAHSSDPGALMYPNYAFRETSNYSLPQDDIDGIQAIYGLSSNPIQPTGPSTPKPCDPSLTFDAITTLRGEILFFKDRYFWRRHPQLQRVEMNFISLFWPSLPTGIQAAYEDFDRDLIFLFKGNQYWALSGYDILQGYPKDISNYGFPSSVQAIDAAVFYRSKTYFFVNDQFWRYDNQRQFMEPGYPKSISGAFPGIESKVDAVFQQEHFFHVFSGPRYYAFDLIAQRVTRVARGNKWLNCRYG

IC50, inhibition of enzyme activity (fluorogenic substrate) (MMP-13 (collagenase 3)): ~10 µM
IC50, inhibition of enzyme activity (fluorogenic substrate) [1]: ~50 µM
B1: phosphinate-containing triple-helical peptide-amphiphile f4, C6-(Gly-Pro-Hyp)5-Gly-Pro-Pro-[Gly~Val]-Val-Gly-Glu-Gln-(Gly-Pro-Hyp)5-NH2 (peptide)
peptide: not shown
modifications: N-terminal hexanoic acid (C6); Hyp (4-hydroxyproline) at 3, 6, 9, 12, 15, 27, 30, 33, 36, 39 (written P in letters); Gly19-Val20 peptide bond replaced by phosphinate psi{PO2H-CH2}; hypothesised phosphino Gly-(L)Val analog; C-terminal amide
notes: One of two RP-HPLC-separated diastereomers of the C6-lipidated peptide; Triple helix of three identical strands by self-assembly; also called Peptide-amphiphile 2; peptide-amphiphile mimic

IC50, inhibition of enzyme activity (fluorogenic substrate) (MMP-13 (collagenase 3)): ~10 µM
IC50, inhibition of enzyme activity (fluorogenic substrate) [1]: ~50 µM
B2: phosphinate-containing triple-helical peptide-amphiphile f3, C6-(Gly-Pro-Hyp)5-Gly-Pro-Pro-[Gly~Val]-Val-Gly-Glu-Gln-(Gly-Pro-Hyp)5-NH2 (peptide)
peptide: not shown
modifications: N-terminal hexanoic acid (C6); Hyp (4-hydroxyproline) at 3, 6, 9, 12, 15, 27, 30, 33, 36, 39 (written P in letters); Gly19-Val20 peptide bond replaced by phosphinate psi{PO2H-CH2}; hypothesised phosphino Gly-(D)Val analog; C-terminal amide
